{"source": "ChEMBL document CHEMBL1142204", "about": "“Cathepsin A is the major hydrolase catalyzing the intracellular hydrolysis of the antiretroviral nucleotide phosphonoamidate prodrugs GS-7340 and GS-9131” (Antimicrob Agents Chemother, 2007)", "proteins": {"B1": {"name": "Lysosomal protective protein (Homo sapiens), P10619 (protein)", "chain": "MIRAAPPPLFLLLLLLLLLVSWASRGEAAPDQDEIQRLPGLAKQPSFRQYSGYLKGSGSKHLHYWFVESQKDPENSPVVLWLNGGPGCSSLDGLLTEHGPFLVQPDGVTLEYNPYSWNLIANVLYLESPAGVGFSYSDDKFYATNDTEVAQSNFEALQDFFRLFPEYKNNKLFLTGESYAGIYIPTLAVLVMQDPSMNLQGLAVGNGLSSYEQNDNSLVYFAYYHGLLGNRLWSSLQTHCCSQNKCNFYDNKDLECVTNLQEVARIVGNSGLNIYNLYAPCAGGVPSHFRYEKDTVVVQDLGNIFTRLPLKRMWHQALLRSGDKVRMDPPCTNTTAASTYLNNPYVRKALNIPEQLPQWDMCNFLVNLQYRRLYRSMNSQYLKLLSSQKYQILLYNGDVDMACNFMGDEWFVDSLNQKMEVQRRPWLVKYGDSGEQIAGFVKEFSHIAFLTIKGAGHMVPTDKPLAAFTMFSRFLNKQPY"}}, "key": {"[1]": {"substrate": "CC(C)OC(=O)[C@H](C)N[P@](=O)(CO[C@H](C)Cn1cnc2c(N)ncnc21)Oc1ccccc1", "test": "Activity of Cat A assessed as hydrolysis", "conditions": "Homo sapiens"}, "[2]": {"substrate": "CC(C)OC(=O)[C@H](C)N[P@](=O)(CO[C@H](C)Cn1cnc2c(N)ncnc21)Oc1ccccc1", "test": "Ratio of kcat to Km for Cat A activity", "conditions": "Homo sapiens"}}}
{"protein": "B1", "values": [{"measurement": "Km", "setting": "[1]", "value": 610, "unit": "µM"}, {"measurement": "kcat/Km", "setting": "[2]", "value": "2.9e+06", "unit": "M⁻¹ s⁻¹"}]}
